Positions count from the first letter of the chain named.
B1: GpH7-A5/GpH7-B3 variant Q295_03V/GpL16-k0 (antibody, human IgG1, kappa)
heavy 1: not shown
heavy 2: not shown
light: DIVMTQSPLSLPVTPGEPASISCQASESLVHSNRNTYLHWYLQKPGQSPQLLIYKVSNRFSGVPDRFSGSGSGTDFTLKISRVEAEDVGVYYCSQNTHVPPTFGQGTKVEIERTVAAPSVFIFPPSDEQLKSGTASVVCLLNNFYPREAKVQWKVDNALQSGNSQESVTEQDSKDSTYSLSSTLTLSKADYEKHKVYACEVTHQGLSSPVTKSFNRGEC
B2: GpH7-A5/GpH7-B3 variant Q295_16H/GpL16-k0 (antibody, human IgG1, kappa)
heavy 1: not shown
heavy 2: not shown
light: B1 light
B3: GpH7-A5/GpH7-B3 variant S239_10E/GpL16-k0 (antibody, human IgG1, kappa)
heavy 1: not shown
heavy 2: not shown
light: B1 light
B4: GpH7-A5/GpH7-B3 variant Q295_06M/GpL16-k0 (antibody, human IgG1, kappa)
heavy 1: not shown
heavy 2: not shown
light: B1 light
B5: GpH7-A5/GpH7-B3 variant Q295_08L/GpL16-k0 (antibody, human IgG1, kappa)
heavy 1: not shown
heavy 2: not shown
light: B1 light
B6: GpH7-A5/GpH7-B3 variant Q295_04F/GpL16-k0 (antibody, human IgG1, kappa)
heavy 1: not shown
heavy 2: not shown
light: B1 light
B7: GpH7-A5/GpH7-B3 variant S239_06M/GpL16-k0 (antibody, human IgG1, kappa)
heavy 1: not shown
heavy 2: not shown
light: B1 light
B8: GpH7-A5/GpH7-B3 variant S239_08L/GpL16-k0 (antibody, human IgG1, kappa)
heavy 1: not shown
heavy 2: not shown
light: B1 light
B9: GpH7-A5/GpH7-B3 variant S239_02A/GpL16-k0 (antibody, human IgG1, kappa)
heavy 1: not shown
heavy 2: not shown
light: B1 light
B10: GpH7-A5/GpH7-B3 variant S239_01G/GpL16-k0 (antibody, human IgG1, kappa)
heavy 1: not shown
heavy 2: not shown
light: B1 light
B11: GpH7-A5/GpH7-B3 variant Q295_13S/GpL16-k0 (antibody, human IgG1, kappa)
heavy 1: not shown
heavy 2: not shown
light: B1 light
B12: GpH7-A5/GpH7-B3 variant S239_07I/GpL16-k0 (antibody, human IgG1, kappa)
heavy 1: not shown
heavy 2: not shown
light: B1 light
B13: GpH7-A5/GpH7-B3 variant Q295_05P/GpL16-k0 (antibody, human IgG1, kappa)
heavy 1: not shown
heavy 2: not shown
light: B1 light
B14: GpH7-A5/GpH7-B3 variant Q295_11K/GpL16-k0 (antibody, human IgG1, kappa)
heavy 1: not shown
heavy 2: not shown
light: B1 light
B15: GpH7-A5/GpH7-B3 variant S239_03V/GpL16-k0 (antibody, human IgG1, kappa)
heavy 1: not shown
heavy 2: not shown
light: B1 light
B16: GpH7-A5/GpH7-B3 variant Q295_12R/GpL16-k0 (antibody, human IgG1, kappa)
heavy 1: not shown
heavy 2: not shown
light: B1 light
B17: GpH7-A5/GpH7-B3 variant Q295_15Y/GpL16-k0 (antibody, human IgG1, kappa)
heavy 1: not shown
heavy 2: not shown
light: B1 light
B18: GpH7-A5/GpH7-B3 variant Q295_14T/GpL16-k0 (antibody, human IgG1, kappa)
heavy 1: not shown
heavy 2: not shown
light: B1 light
B19: GpH7-A5/GpH7-B3 variant S239_18N/GpL16-k0 (antibody, human IgG1, kappa)
heavy 1: not shown
heavy 2: not shown
light: B1 light
B20: GpH7-A5/GpH7-B3 variant Q295_07I/GpL16-k0 (antibody, human IgG1, kappa)
heavy 1: not shown
heavy 2: not shown
light: B1 light
B21: GpH7-A5/GpH7-B3 variant Q295_10E/GpL16-k0 (antibody, human IgG1, kappa)
heavy 1: not shown
heavy 2: not shown
light: B1 light
B22: GpH7-A5/GpH7-B3 variant S239_09D/GpL16-k0 (antibody, human IgG1, kappa)
heavy 1: not shown
heavy 2: not shown
light: B1 light
B23: GpH7-A5/GpH7-B3 variant Q295_18N/GpL16-k0 (antibody, human IgG1, kappa)
heavy 1: not shown
heavy 2: not shown
light: B1 light
B24: GpH7-A5/GpH7-B3 variant Q295_09D/GpL16-k0 (antibody, human IgG1, kappa)
heavy 1: not shown
heavy 2: not shown
light: B1 light
B25: GpH7-A5/GpH7-B3 variant S239_14T/GpL16-k0 (antibody, human IgG1, kappa)
heavy 1: not shown
heavy 2: not shown
light: B1 light

Molecular target: T1, FcγRIIb extracellular domain, His-tagged (human, UniProt P31994 43-217)
T1 construct: extracellular domain; also called 2b
T1 sequence: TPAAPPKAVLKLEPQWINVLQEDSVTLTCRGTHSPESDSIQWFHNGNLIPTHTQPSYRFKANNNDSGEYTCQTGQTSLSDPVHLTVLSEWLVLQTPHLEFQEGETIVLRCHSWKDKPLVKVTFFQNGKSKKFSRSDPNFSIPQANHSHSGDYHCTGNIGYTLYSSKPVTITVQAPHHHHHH
Experiment: SPR, vs GpH7-A5/GpH7-B3/GpL16-k0 =100

Binder | He/Con 2b
B1 | 84.9 % of control
B2 | 70.3 % of control
B3 | 183 % of control
B4 | 101 % of control
B5 | 134 % of control
B6 | 72.6 % of control
B7 | 102 % of control
B8 | 142 % of control
B9 | 91.6 % of control
B10 | 146 % of control
B11 | 63.8 % of control
B12 | 108 % of control
B13 | 75.7 % of control
B14 | 79 % of control
B15 | 110 % of control
B16 | 73.1 % of control
B17 | 73.3 % of control
B18 | 74.9 % of control
B19 | 121 % of control
B20 | 94.5 % of control
B21 | 106 % of control
B22 | 209 % of control
B23 | 72.8 % of control
B24 | 68.1 % of control
B25 | 98.6 % of control

Molecular target: T2, FcγRIIa(R) extracellular domain, His-tagged (human, UniProt P12318 34-217)
T2 construct: extracellular domain; also called 2aR
T2 sequence: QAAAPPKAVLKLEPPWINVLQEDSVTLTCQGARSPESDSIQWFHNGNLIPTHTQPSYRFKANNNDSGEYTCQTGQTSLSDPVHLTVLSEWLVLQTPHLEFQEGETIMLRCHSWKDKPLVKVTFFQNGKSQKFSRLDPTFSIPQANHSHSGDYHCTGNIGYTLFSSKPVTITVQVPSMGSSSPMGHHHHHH
Experiment: SPR, vs GpH7-A5/GpH7-B3/GpL16-k0 =100

Binder | He/Con 2aR
B1 | 90.3 % of control
B2 | 80.5 % of control
B3 | 127 % of control
B4 | 101 % of control
B5 | 118 % of control
B6 | 82.8 % of control
B7 | 94.7 % of control
B8 | 114 % of control
B9 | 89.8 % of control
B10 | 120 % of control
B11 | 73 % of control
B12 | 95.9 % of control
B13 | 86.6 % of control
B14 | 88.1 % of control
B15 | 94.1 % of control
B16 | 82.2 % of control
B17 | 82 % of control
B18 | 79.2 % of control
B19 | 104 % of control
B20 | 97.3 % of control
B21 | 101 % of control
B22 | 129 % of control
B23 | 81.7 % of control
B24 | 68.7 % of control
B25 | 97.4 % of control

Molecular target: T3, FcγRIIIa extracellular domain, His-tagged (human, UniProt P08637 17-208)
T3 construct: extracellular domain; also called 3a
T3 sequence (P08637 other isoform, or with tags, fused parts or gaps): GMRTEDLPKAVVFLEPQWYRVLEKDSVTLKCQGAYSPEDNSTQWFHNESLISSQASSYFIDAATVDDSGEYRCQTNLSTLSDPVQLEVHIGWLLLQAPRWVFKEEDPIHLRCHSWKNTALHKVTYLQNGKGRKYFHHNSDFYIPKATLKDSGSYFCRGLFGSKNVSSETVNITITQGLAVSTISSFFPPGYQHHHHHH
Experiment: SPR, vs GpH7-A5/GpH7-B3/GpL16-k0 =100

Binder | He/Con 3a
B1 | 86.2 % of control
B2 | 80.2 % of control
B3 | 171 % of control
B4 | 100 % of control
B5 | 120 % of control
B6 | 75.1 % of control
B7 | 73.9 % of control
B8 | 90 % of control
B9 | 70.9 % of control
B10 | 72 % of control
B11 | 90.4 % of control
B12 | 75 % of control
B13 | 74.4 % of control
B14 | 81.8 % of control
B15 | 72.4 % of control
B16 | 73.2 % of control
B17 | 81.5 % of control
B18 | 120 % of control
B19 | 104 % of control
B20 | 101 % of control
B21 | 105 % of control
B22 | 156 % of control
B23 | 85.7 % of control
B24 | 85.6 % of control
B25 | 93 % of control

Molecular target: T4, FcγRIa extracellular domain, His-tagged (human, UniProt P12314 16-292)
T4 construct: extracellular domain; also called 1a
T4 sequence (P12314 other isoform, or with tags, fused parts or gaps): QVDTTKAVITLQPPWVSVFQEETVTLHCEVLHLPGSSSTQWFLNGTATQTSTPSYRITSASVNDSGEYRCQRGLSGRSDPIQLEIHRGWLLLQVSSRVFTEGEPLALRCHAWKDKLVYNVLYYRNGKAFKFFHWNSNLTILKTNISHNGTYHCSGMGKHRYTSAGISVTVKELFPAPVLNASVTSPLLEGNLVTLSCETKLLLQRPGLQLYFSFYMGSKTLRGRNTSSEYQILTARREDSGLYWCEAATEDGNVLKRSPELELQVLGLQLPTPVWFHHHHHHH
Experiment: SPR, vs GpH7-A5/GpH7-B3/GpL16-k0 =100

Binder | He/Con 1a
B1 | 102 % of control
B2 | 101 % of control
B3 | 108 % of control
B4 | 102 % of control
B5 | 103 % of control
B6 | 101 % of control
B7 | 102 % of control
B8 | 103 % of control
B9 | 103 % of control
B10 | 104 % of control
B11 | 100 % of control
B12 | 101 % of control
B13 | 102 % of control
B14 | 99.7 % of control
B15 | 98.9 % of control
B16 | 98.8 % of control
B17 | 100 % of control
B18 | 101 % of control
B19 | 104 % of control
B20 | 101 % of control
B21 | 101 % of control
B22 | 104 % of control
B23 | 101 % of control
B24 | 98.5 % of control
B25 | 104 % of control

Molecular target: T5, FcγRIIa(H) extracellular domain, His-tagged (human, UniProt P12318 34-217)
T5 construct: extracellular domain; also called 2aH
T5 sequence: T2 sequence with R134H
Experiment: SPR, vs GpH7-A5/GpH7-B3/GpL16-k0 =100

Binder | He/Con 2aH
B1 | 106 % of control
B2 | 90.1 % of control
B3 | 108 % of control
B4 | 111 % of control
B5 | 128 % of control
B6 | 87.4 % of control
B7 | 95.4 % of control
B8 | 101 % of control
B9 | 89.9 % of control
B10 | 93.8 % of control
B11 | 79.5 % of control
B12 | 88.5 % of control
B13 | 118 % of control
B14 | 102 % of control
B15 | 88 % of control
B16 | 96.4 % of control
B17 | 89.3 % of control
B18 | 86.2 % of control
B19 | 91.1 % of control
B20 | 117 % of control
B21 | 112 % of control
B22 | 111 % of control
B23 | 87.8 % of control
B24 | 62.6 % of control
B25 | 95.9 % of control

Source: US20260167699A1 (Chugai, published 2026)
